{"source": "patent US9102763B2", "target": "T1, Syndecan-1", "T1 sequence (P18827 whole entry, species assumed, looked up)": "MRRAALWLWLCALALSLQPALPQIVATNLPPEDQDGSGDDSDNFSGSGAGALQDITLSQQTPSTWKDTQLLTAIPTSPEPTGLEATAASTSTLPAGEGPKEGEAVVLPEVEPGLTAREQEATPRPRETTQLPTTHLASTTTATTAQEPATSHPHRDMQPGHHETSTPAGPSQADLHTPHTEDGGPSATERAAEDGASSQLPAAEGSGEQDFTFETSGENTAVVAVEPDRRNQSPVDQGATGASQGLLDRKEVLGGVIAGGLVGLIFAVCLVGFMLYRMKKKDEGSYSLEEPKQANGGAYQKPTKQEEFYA", "data": [{"binder": "lacritin (free lacritin released from Lac-ELP by thrombin cleavage) (ligand) MEDASSDSTGADPAQEAGTSKPNEEISGPAEPASPPETTTTAQETSAAAVQGTAKVTSSRQELNPLKSIVEKSILLTEQALAKAGKGMHGGVPGGKQFIENGSEFAQKLLKKFSLLKPWAGLVPR", "values": [{"measurement": "minimal therapeutic concentration (β-hexosaminidase secretion, rabbit LGACs)", "result": 10, "unit": "µM"}]}]}
